Columns and labels:
[1] = biological target: Flag-tagged human AMPK-α1 fusion protein (human) (UniProt Q13131)
[2] = biological target: Flag-tagged human AMPK-α2 fusion protein (human) (UniProt P54646)
[3] = biological target: Flag-tagged human CHREBP fusion protein (human) (UniProt Q9NP71)
Chain of Flag-tagged human CHREBP fusion protein (human) (Q9NP71 whole entry, the tested form may be a part): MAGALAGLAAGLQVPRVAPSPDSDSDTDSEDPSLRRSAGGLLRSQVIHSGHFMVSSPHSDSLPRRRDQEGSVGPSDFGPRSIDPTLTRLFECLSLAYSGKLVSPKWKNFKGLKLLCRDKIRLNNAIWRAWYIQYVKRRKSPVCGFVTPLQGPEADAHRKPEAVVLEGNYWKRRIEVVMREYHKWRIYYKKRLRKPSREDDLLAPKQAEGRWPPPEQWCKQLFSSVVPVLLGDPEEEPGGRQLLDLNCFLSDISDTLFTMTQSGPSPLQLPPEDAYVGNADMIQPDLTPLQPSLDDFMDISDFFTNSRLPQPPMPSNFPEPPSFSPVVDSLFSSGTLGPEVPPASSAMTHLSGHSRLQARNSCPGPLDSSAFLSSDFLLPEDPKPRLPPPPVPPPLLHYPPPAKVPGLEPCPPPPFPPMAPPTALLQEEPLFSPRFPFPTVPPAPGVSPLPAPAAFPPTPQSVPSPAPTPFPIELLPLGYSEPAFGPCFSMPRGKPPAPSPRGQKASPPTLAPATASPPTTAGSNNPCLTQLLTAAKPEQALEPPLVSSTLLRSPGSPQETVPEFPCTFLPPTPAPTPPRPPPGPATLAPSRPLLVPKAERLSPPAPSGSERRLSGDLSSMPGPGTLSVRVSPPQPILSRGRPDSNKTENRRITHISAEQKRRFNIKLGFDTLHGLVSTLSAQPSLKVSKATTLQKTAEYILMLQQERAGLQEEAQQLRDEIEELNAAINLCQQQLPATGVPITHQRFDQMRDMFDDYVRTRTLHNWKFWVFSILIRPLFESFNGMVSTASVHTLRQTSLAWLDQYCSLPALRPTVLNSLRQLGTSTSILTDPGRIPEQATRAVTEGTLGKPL

Chain of active CDK6/Cyclin D3 kinase (Q00534 whole entry): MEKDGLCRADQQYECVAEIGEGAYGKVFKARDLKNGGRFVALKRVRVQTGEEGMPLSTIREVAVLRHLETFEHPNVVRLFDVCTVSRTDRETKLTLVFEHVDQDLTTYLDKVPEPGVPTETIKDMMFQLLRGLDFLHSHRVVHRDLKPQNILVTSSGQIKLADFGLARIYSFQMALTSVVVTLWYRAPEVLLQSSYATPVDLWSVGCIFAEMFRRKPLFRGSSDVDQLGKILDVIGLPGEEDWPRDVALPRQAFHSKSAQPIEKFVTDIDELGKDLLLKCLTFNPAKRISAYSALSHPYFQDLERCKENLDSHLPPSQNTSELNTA
Chain of active CDK6/Cyclin D3 kinase (P30281 whole entry): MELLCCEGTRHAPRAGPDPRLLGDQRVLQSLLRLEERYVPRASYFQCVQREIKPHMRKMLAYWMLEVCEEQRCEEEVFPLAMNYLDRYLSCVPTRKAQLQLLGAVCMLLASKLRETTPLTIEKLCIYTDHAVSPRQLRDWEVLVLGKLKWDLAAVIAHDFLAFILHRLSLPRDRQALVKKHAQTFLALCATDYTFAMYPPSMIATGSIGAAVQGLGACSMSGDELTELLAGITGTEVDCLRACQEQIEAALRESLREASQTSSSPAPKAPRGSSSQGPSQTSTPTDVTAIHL
Chain of Flag-tagged human AMPK-α1 fusion protein (human) (Q13131 whole entry, the tested form may be a part): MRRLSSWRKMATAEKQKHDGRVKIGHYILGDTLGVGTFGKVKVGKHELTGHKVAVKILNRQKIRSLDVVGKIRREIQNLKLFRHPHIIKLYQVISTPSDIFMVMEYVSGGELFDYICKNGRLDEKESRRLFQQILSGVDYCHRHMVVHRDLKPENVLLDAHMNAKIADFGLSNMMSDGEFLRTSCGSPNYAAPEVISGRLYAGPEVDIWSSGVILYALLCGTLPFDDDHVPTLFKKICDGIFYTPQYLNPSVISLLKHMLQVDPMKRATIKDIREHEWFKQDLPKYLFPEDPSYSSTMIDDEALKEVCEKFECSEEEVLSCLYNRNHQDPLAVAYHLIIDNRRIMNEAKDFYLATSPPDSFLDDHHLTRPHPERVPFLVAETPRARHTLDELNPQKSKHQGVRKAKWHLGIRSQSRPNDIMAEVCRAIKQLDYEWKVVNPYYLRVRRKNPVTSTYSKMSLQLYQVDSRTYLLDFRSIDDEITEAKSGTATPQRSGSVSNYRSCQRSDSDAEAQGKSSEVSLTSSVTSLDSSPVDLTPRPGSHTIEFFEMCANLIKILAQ
Chain of Flag-tagged human AMPK-α2 fusion protein (human) (P54646 whole entry, the tested form may be a part): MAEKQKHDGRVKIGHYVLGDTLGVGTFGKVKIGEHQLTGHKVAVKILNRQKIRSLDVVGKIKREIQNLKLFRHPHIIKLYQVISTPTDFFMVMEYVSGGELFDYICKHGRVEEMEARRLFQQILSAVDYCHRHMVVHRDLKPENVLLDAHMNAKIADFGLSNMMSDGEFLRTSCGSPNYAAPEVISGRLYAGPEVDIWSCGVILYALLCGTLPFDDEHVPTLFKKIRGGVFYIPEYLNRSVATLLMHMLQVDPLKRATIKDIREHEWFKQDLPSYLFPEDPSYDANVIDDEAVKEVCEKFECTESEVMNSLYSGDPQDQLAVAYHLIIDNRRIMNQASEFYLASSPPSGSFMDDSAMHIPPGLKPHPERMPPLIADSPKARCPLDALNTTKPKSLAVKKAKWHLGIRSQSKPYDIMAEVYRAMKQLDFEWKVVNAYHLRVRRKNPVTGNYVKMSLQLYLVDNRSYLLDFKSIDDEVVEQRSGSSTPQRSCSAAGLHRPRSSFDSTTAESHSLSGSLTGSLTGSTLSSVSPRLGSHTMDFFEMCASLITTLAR

- fold increase in total spectrum counts (TSC) of phosphorylated peptides of the substrate after in vitro kinase reaction with CDK6/D3 (mass spectrometry) [1]: 14.7 fold
- fold increase in total spectrum counts (TSC) of phosphorylated peptides of the substrate after in vitro kinase reaction with CDK6/D3 (mass spectrometry) [2]: 46.8 fold
- fold increase in total spectrum counts (TSC) of phosphorylated peptides of the substrate after in vitro kinase reaction with CDK6/D3 (mass spectrometry) [3]: 6.43 fold
Substance: active CDK6/Cyclin D3 kinase (from UniProt Q00534 1-326; P30281 1-292) (complex)
